Biological target: T1, 合成的G6PC多肽 (synthetic G6PC immunogen peptide, sequence range 80-120aa) (human) (UniProt P35575)
T1 sequence (peptide, looked up): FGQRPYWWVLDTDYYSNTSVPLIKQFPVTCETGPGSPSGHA
Assay: indirect ELISA, serial two-fold dilution of the antibody; coating antigen not stated (taken to be the immunogen peptide)

B1: 兔单克隆抗体OTIR5G10 (rabbit anti-human glucose-6-phosphatase (G6PC) monoclonal antibody OTIR5G10) (antibody, V domains shown)
VH: QSVEESGGRLVTPGTPLTLTCTVSGADLSTYGVIWVRQAPGKGLEYIAAIVSGGRPYYRHWAKGRFTISKTSSTTVELKITSPTTEDTATYFCVLGNLWGQGTLVTVSS
VL: AQVLTQTASPVSAAVGGTVTINCQASQSVYSNNYLSWFQQKPGQPPKQLIYRASKLASGVSSRFKGSGSGTQFTLTISDVQCDDAATYYCLGGYDCSSADFGGGTEVVVK
抗体效价 (ELISA titer): 1.2e+07
